Data on 94 variants can be found in the supplement of paper PMC10567573.

The labels stand for the following.
B1: DLC1 (parent)
chain: KRSWEEHVTHWMGQPFNSDDRNTA
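Further: lentivirally expressed fusions sorted by FACS into six bins by GFP to DsRed ratio, PSI derived from sequencing read proportions per bin multiplied by bin number.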

Variants of B1 are the subject of the series. The series can be described thus: protein stability index of a GFP-peptide fusion (GPS, HEK-293T) (PSI 1-6); higher = more stable. The following applies: c terminus: a fixed tail appended.
Regarding KRSWEEVVTHWMGQPFNSDDRNTA [H7V], the protein stability index was determined as 3.18. In the case of KRSWEEGVTHWMGQPFNSDDRNTA [H7G] it was 4.29; in that of KRSWEEYVTHWMGQPFNSDDRNTA [H7Y], 2.29. Take KRSWEEMVTHWMGQPFNSDDRNTA [H7M]: the protein stability index is 2.84. With KRSWEEIVTHWMGQPFNSDDRNTA [H7I], the protein stability index worked out at 3.75. The result for KRSWEEWVTHWMGQPFNSDDRNTA [H7W] reads 2.82; that for KRSWEENVTHWMGQPFNSDDRNTA [H7N], 4.35. With KRSWEEKVTHWMGQPFNSDDRNTA [H7K], the protein stability index came to 3.44. KRSWEERVTHWMGQPFNSDDRNTA [H7R]: the protein stability index is 3.08. As for KRSWEEFVTHWMGQPFNSDDRNTA [H7F], the protein stability index came to 2.84.

On to KRSWEELVTHWMGQPFNSDDRNTA [H7L], for which the protein stability index was 2.64. The result for KRSWEECVTHWMGQPFNSDDRNTA [H7C] reads 3.33; that for KRSWEEAVTHWMGQPFNSDDRNTA [H7A], 3.54; that for KRSWEEEVTHWMGQPFNSDDRNTA [H7E], 3.1. As for KRSPEEHVTHWMGQPFNSDDRNTA [W4P], the protein stability index came to 4.45. Consider KRSTEEHVTHWMGQPFNSDDRNTA [W4T], for which the protein stability index was determined as 4.76. Consider KRSFEEHVTHWMGQPFNSDDRNTA [W4F], for which the protein stability index was determined as 4.09. For the variant KRSQEEHVTHWMGQPFNSDDRNTA [W4Q], the protein stability index turned out to be 4.71. The result for KRSNEEHVTHWMGQPFNSDDRNTA [W4N] reads 4.95; that for KRSAEEHVTHWMGQPFNSDDRNTA [W4A], 4.41; that for KRSVEEHVTHWMGQPFNSDDRNTA [W4V], 4.36. Regarding KRSKEEHVTHWMGQPFNSDDRNTA [W4K], the protein stability index was 4.48.

On to KRSLEEHVTHWMGQPFNSDDRNTA [W4L], for which the protein stability index stood at 3.45. With KRSIEEHVTHWMGQPFNSDDRNTA [W4I], the protein stability index was determined as 4.41. Consider KRSCEEHVTHWMGQPFNSDDRNTA [W4C], for which the protein stability index was found to be 4.2.

As for KRSMEEHVTHWMGQPFNSDDRNTA [W4M], the protein stability index amounted to 3.95.

As for KRSSEEHVTHWMGQPFNSDDRNTA [W4S], the protein stability index is 4.32. In the case of KRSREEHVTHWMGQPFNSDDRNTA [W4R] it was 4.62. KRSGEEHVTHWMGQPFNSDDRNTA [W4G]: the protein stability index amounted to 4.38. Regarding KRSEEEHVTHWMGQPFNSDDRNTA [W4E], the protein stability index was determined as 5.05. Turning to KRSDEEHVTHWMGQPFNSDDRNTA [W4D], the protein stability index worked out at 5.21. Take KRSYEEHVTHWMGQPFNSDDRNTA [W4Y]: the protein stability index turned out to be 4.08. In the case of KRSHEEHVTHWMGQPFNSDDRNTA [W4H] it was 4.44; in that of KFSWEEHVTHWMGQPFNSDDRNTA [R2F], 3.62; in that of KVSWEEHVTHWMGQPFNSDDRNTA [R2V], 3.26.

Consider KLSWEEHVTHWMGQPFNSDDRNTA [R2L], for which the protein stability index amounted to 3.28.

Take KKSWEEHVTHWMGQPFNSDDRNTA [R2K]: the protein stability index was 2.6. In the case of KDSWEEHVTHWMGQPFNSDDRNTA [R2D] it was 4.37. Take KISWEEHVTHWMGQPFNSDDRNTA [R2I]: the protein stability index turned out to be 2.71. As to KMSWEEHVTHWMGQPFNSDDRNTA [R2M], the protein stability index was 2.79. In the case of KASWEEHVTHWMGQPFNSDDRNTA [R2A], the protein stability index was 3.11. In the case of KWSWEEHVTHWMGQPFNSDDRNTA [R2W] it was 2.98; in that of KYSWEEHVTHWMGQPFNSDDRNTA [R2Y], 3.25. In the case of KCSWEEHVTHWMGQPFNSDDRNTA [R2C] it was 2.52; in that of KGSWEEHVTHWMGQPFNSDDRNTA [R2G], 3.61; in that of KESWEEHVTHWMGQPFNSDDRNTA [R2E], 3.61. For the variant KHSWEEHVTHWMGQPFNSDDRNTA [R2H], the protein stability index is 3.08. As for KSSWEEHVTHWMGQPFNSDDRNTA [R2S], the protein stability index was determined as 3.79. Turning to KTSWEEHVTHWMGQPFNSDDRNTA [R2T], the protein stability index came out at 3.7.

KQSWEEHVTHWMGQPFNSDDRNTA [R2Q]: the protein stability index was determined as 3.11. In the case of KPSWEEHVTHWMGQPFNSDDRNTA [R2P], the protein stability index is 3.37. Regarding KNSWEEHVTHWMGQPFNSDDRNTA [R2N], the protein stability index amounted to 3.67.

Turning to KRSWEEHVCHWMGQPFNSDDRNTA [T9C], the protein stability index was determined as 2.6. With KRSWEEHVEHWMGQPFNSDDRNTA [T9E], the protein stability index is 3.84. Take KRSWEEHVAHWMGQPFNSDDRNTA [T9A]: the protein stability index is 2.97. Consider KRSWEEHVDHWMGQPFNSDDRNTA [T9D], for which the protein stability index came out at 4.32.

In the case of KRSWEEHITHWMGQPFNSDDRNTA [V8I], the protein stability index turned out to be 2.81. For KRSWEEHTTHWMGQPFNSDDRNTA [V8T], the protein stability index worked out at 3.84. With KRSWEEHQTHWMGQPFNSDDRNTA [V8Q], the protein stability index was 3.86. KRSWEEHLTHWMGQPFNSDDRNTA [V8L]: the protein stability index was found to be 3.31.

For the variant KRSWEEHGTHWMGQPFNSDDRNTA [V8G], the protein stability index is 4.02. In the case of KRSWEEHMTHWMGQPFNSDDRNTA [V8M] it was 3.66. In the case of KRSWEEHDTHWMGQPFNSDDRNTA [V8D] it was 4.42. Consider KRSWEEHETHWMGQPFNSDDRNTA [V8E], for which the protein stability index was determined as 4.24. In the case of KRSWEEHCTHWMGQPFNSDDRNTA [V8C] it was 3.98; in that of KRSWEEHYTHWMGQPFNSDDRNTA [V8Y], 3.99; in that of KRSWEEHATHWMGQPFNSDDRNTA [V8A], 4.13. The result for KRSWEEHNTHWMGQPFNSDDRNTA [V8N] reads 4.13; that for KRSWEEHWTHWMGQPFNSDDRNTA [V8W], 3.39; that for KRSWEEHSTHWMGQPFNSDDRNTA [V8S], 3.88. In the case of KRSWEEHFTHWMGQPFNSDDRNTA [V8F] it was 3.34.

On to KRSWEEHKTHWMGQPFNSDDRNTA [V8K], for which the protein stability index stood at 4.26. In the case of KRSWEEHHTHWMGQPFNSDDRNTA [V8H] it was 4.04; in that of KRSWEEHRTHWMGQPFNSDDRNTA [V8R], 4.22. KRSWEEHPTHWMGQPFNSDDRNTA [V8P]: the protein stability index stood at 4.21. As to KRRWEEHVTHWMGQPFNSDDRNTA [S3R], the protein stability index was 3.34. As for KRCWEEHVTHWMGQPFNSDDRNTA [S3C], the protein stability index was 2.24. Take KRHWEEHVTHWMGQPFNSDDRNTA [S3H]: the protein stability index came out at 3.72.

As to KRWWEEHVTHWMGQPFNSDDRNTA [S3W], the protein stability index came to 3.

For the variant KRMWEEHVTHWMGQPFNSDDRNTA [S3M], the protein stability index was determined as 3.35. Take KRAWEEHVTHWMGQPFNSDDRNTA [S3A]: the protein stability index was determined as 3.44. Take KRGWEEHVTHWMGQPFNSDDRNTA [S3G]: the protein stability index came out at 3.44. As for KREWEEHVTHWMGQPFNSDDRNTA [S3E], the protein stability index was 4.41. KRKWEEHVTHWMGQPFNSDDRNTA [S3K]: the protein stability index came out at 3.47. On to KRNWEEHVTHWMGQPFNSDDRNTA [S3N], for which the protein stability index was determined as 3.81.

Consider KRYWEEHVTHWMGQPFNSDDRNTA [S3Y], for which the protein stability index came to 3.01. KRDWEEHVTHWMGQPFNSDDRNTA [S3D]: the protein stability index worked out at 4.33.

Regarding KRFWEEHVTHWMGQPFNSDDRNTA [S3F], the protein stability index worked out at 3.18. The result for KRVWEEHVTHWMGQPFNSDDRNTA [S3V] reads 3.94. For KRLWEEHVTHWMGQPFNSDDRNTA [S3L], the protein stability index was determined as 3.37.

Turning to KRPWEEHVTHWMGQPFNSDDRNTA [S3P], the protein stability index came out at 3.6. For the variant KRIWEEHVTHWMGQPFNSDDRNTA [S3I], the protein stability index is 3.78. In the case of KRTWEEHVTHWMGQPFNSDDRNTA [S3T] it was 2.13. In the case of KRQWEEHVTHWMGQPFNSDDRNTA [S3Q], the protein stability index amounted to 3.54.
